The values below come from publication PMC10732398 (PLOS Pathogens, 2023).

Assay [1] concerns ⍺4β7 transfected 293T cells. The assay is described as follows: Flow cytometry: staining of 293T cells co-transfected with ⍺4 and β7 expression vectors. The assay is classed as binding. The settings on record: Fig 1C. An excerpt:
The FRET/FLIM results described above indicate a direct interaction between CD4 and ⍺4β7. […] To this end we employed a fluorescently labelled soluble dodecameric CD4 Ig fusion protein, termed D1D2-Ig⍺tp, that includes the two N-terminal Ig-like domains of CD4 (D1D2, aa 1–180), followed by IgG1 CH2 and CH3 domains, followed by the 18 aa tail-piece domain of IgA (⍺tp). In this oligomer, 12 D1D2-Igs are arranged in a disulphide linked daisy-chain (Fig 1A). Primary CD4^+ T cells, some of which express ⍺4β7, were reacted with D1D2-Ig⍺tp and analyzed by flow-cytometry. A second oligomeric Ig fusion protein, MicA-Ig⍺tp, which includes the two N-terminal domains of MicA, was employed as a specificity control. […] MAdCAM-Ig was employed as a positive control. […] We conclude that an oligomeric soluble CD4 that includes only its two N-terminal domains can bind to ⍺4β7 in a specific way.
Fig 1 Binding of soluble CD4 to ⍺4β7 on CD4^+ T cells. (A) Schematic of D1D2-Ig⍺tp. […] X-axis indicates geometric mean fluorescence intensity (gMFI). […]
(§1) Cells were stained with fluoresceine conjugated mAbs or recombinant proteins using standard procedures preceded by Fc receptor blocking with human IgG. […] Data were acquired using a FACSCanto II (BD Biosciences) and analyzed with FlowJo software (BD Biosciences). […]
(In general: Flow cytometry measures light scatter and fluorescence of single cells or particles in a stream.)

For assay [2], the system named is ⍺4β7 on primary CD8^+ T cells. The assay is described as follows: Flow cytometry: FAM-conjugated pCD4^165-178 binding to RA-treated primary CD8^+ T cells. More on the design: species or system human. The settings on record: FAM-Ttds-labelled peptide 1.25 μg/200,000 cells in 100 μl; MnCl2; 3 independent experiments. An excerpt: To further investigate the interaction between pCD4^165-178 and ⍺4β7 we attached a fluorescein dye to its amino terminus via a trioxatridecan-succinamic acid (Ttds) linker (Fig 5A). A scrambled pCD4^165-178 was employed as a control. […] FIB504 and vedolizumab inhibited binding by ~50%. This inhibition pattern resembles the one we obtained when inhibiting D1D2-Ig⍺tp with the same antagonists (Fig 3). We conclude that the CD4 D2 G β-strand binds directly to the headpiece region of ⍺4β7 in a cation dependent manner. Support for this conclusion, in the form of site directed mutagenesis within the D2 G β-strand is provided below.
Fig 5 Direct binding of pCD4^165-178 to ⍺4β7 on primary T cells. (A) Sequence of FAM -conjugated pCD4^165-178 and a scrambled derivative (FAM-scr pCD4^165-178). (B) Flow-cytometry derived histogram of pCD4^165-178 binding to RA -cultured CD8^+ T cells. pCD4^165-178 in the presence (green), or absence of Mn^++(black). Unstained cells are shown (grey). (C) Binding of pCD4^165-178 and its scrambled derivative to CD8^+ T cells in the presence of MnCl2 as in panel B, and in the presence of ⍺4 and ⍺4β7 antagonists, as indicated. Y-axis indicates % cells bound. Error bars represent standard error from 3 independent experiments.
Cells were stained with fluoresceine conjugated mAbs or recombinant proteins using standard procedures preceded by Fc receptor blocking with human IgG. Buffers used were 10 mM HEPES 150 mM NaCl (HBS Buffer) with 100 μM CaCl2. 1 mM MnCl2 was also included, unless otherwise specified. Buffer without divalent cations included 0.1 mM EDTA. Unlabeled mAb or protein inhibitors were preincubated with cells or proteins at a 5X molar excess for 15 min on ice. FAM labeled peptides were used at 1.25 μg/ 200,000 cells in a 100 μl volume. Data were acquired using a FACSCanto II (BD Biosciences) and analyzed with FlowJo software (BD Biosciences). Plotted MFI values represent absolute values.

A further assay has as its system ⍺4β7. Kind of assay: SPR binding kinetics: recombinant ⍺4β7 passed over ligand-coated surfaces (S1 Table). The settings on record: SPR Biacore 3000, ligand immobilized, ⍺4β7 analyte, HBS pH 7.4, 1 mM MnCl2, 25°C. The method, then:
To measure the specific affinity of CD4–⍺4β7 interactions we developed a surface plasmon resonance (SPR) -based assay in which recombinant ⍺4β7 was passed over a surface coated with a 23 kD D1D2 protein (aa 1–183). For comparison we prepared surfaces with recombinant MAdCAM-Ig, VCAM-Ig, monomeric gp120, and a SOSIP env trimer (S1 Table). Assays were carried out in the presence of MnCl2 to present ⍺4β7 in an active conformation. […] This rate of dissociation was similar to that of both MAdCAM-Ig and VCAM-Ig with ⍺4β7 and is indicative of a relatively high-affinity interaction.
Experiments were performed using a Biacore 3000 instrument (Cytiva Life Sciences) using CM4 or CM5 sensor chips. The data were evaluated using BIAevaluation 4.1.1 software (Cytiva Life Sciences). The chip surface was activated by injecting 35 μl of a 1:1 mixture of 0.05 M N-hydroxysuccinimide and 0.2 M N-ethyl-N-(dimethylaminopropyl) carbodiimide at 5 μl/min. NeutrAvidin, HIV gp120, sCD4 (D1D2) or Hu-MAdCAM-Ig (R&D Systems) at concentrations of 5 μg/ml in 10mM NaOAc, pH 4.5, were immobilized to 250–750 resonance units (RU). After the proteins were immobilized to the desired densities, unreacted sites were blocked with 35 μl of 1 M Tris-HCl (pH 8.0). Biotinylated cyclic V2 peptides (1 μg/ml in 20 mM Tris-HCl, pH 8.0) were bound to the NeutrAvidin surfaces to densities of approximately 250–300 RU. One surface was activated and blocked without ligand as a control surface for non-specific binding. Signal from the control surface was subsequently subtracted. Running buffer was HBS (pH 7.4), 1 mM MnCl2, 0.005% Tween- 20, 0.05% soluble carboxymethyl-dextran. Binding experiments were carried out at a flow rate of 25 μl/min at 25°C. After a 2 min injection, the surface was washed for an additional 2 min in running buffer allowing dissociation of the bound ligand from the surface. The surfaces were regenerated by multiple injections of 4.5 M MgCl2 at a flow rate of 100 μl/min. Inhibition of ⍺4β7 binding by linear V2-loop and CD4 derived peptides was carried out by pre-incubating ⍺4β7 with the peptides in running buffer at the indicated concentrations for 2 hours at room temperature prior to passing them over the prepared surfaces as described above. Cross-inhibition experiments were performed by passing either buffer or the listed analytes over a surface to which sCD4 (D1D2) had been immobilized, followed by a secondary sequential injection of ⍺4β7. The ability of each analyte to inhibit either itself or ⍺4β7 was determined by comparing the binding of ⍺4β7 in the absence or presence of the listed pre-bound analytes as previously described. Illustration of the dynamic range of range of linear peptide inhibition assays is provided in S4 Fig.

In assay [3] the test system is ⍺4β7 on RPMI8866 cells. The assay is described as follows: Flow cytometry: cross-inhibition of MAdCAM-Ig, VCAM-Ig and D1D2-Ig⍺tp binding to RPMI8866 cells. The settings on record: increasing concentrations of unlabeled inhibitor, Fig 2C, 2D. Also on record: species or system human. On the procedure: Cis interactions between various integrins and leukocyte receptors are known to regulate immune cell functions. To determine whether CD4 inhibits MAdCAM-1 or VCAM-1 binding to ⍺4β7 we preincubated RPMI8866 cells with labelled MAdCAM-Ig or VCAM-Ig in the presence of increasing concentrations of unlabeled D1D2-Ig⍺tp. […] This implies that MAdCAM-1 and VCAM-1, acting in trans, may interfere with CD4-⍺4β7 interactions. What remains unknown is whether interactions between ⍺4β7 and CD4 impact CD4 migration into the TCR and subsequent interactions with MHC II (Fig 2E).
Fig 2 Cross-inhibition of MAdCAM-Ig, VCAM-Ig and D1D2-Ig⍺tp binding to ⍺4β7. Flow cytometric analysis of (A) PE -conjugated MAdCAM-Ig or (B) PE -conjugated VCAM-Ig binding to RPMI8866 cells pre-incubated with increasing concentrations of unlabeled D1D2-Igαtp. Cell preincubated with increasing concentrations of (C) unlabeled MAdCAM-Ig or (D) VCAM-Ig followed by PE -conjugated D1D2-Ig⍺tp. Y-axis indicates gMFI. Dashed line indicates gMFI in the absence of any inhibitor.
Cells were stained with fluoresceine conjugated mAbs or recombinant proteins using standard procedures preceded by Fc receptor blocking with human IgG. Buffers used were 10 mM HEPES 150 mM NaCl (HBS Buffer) with 100 μM CaCl2. […] Data were acquired using a FACSCanto II (BD Biosciences) and analyzed with FlowJo software (BD Biosciences). […]

In assay [4] the test system is ⍺4β7 on RPMI8866 cells. Kind of assay: Flow cytometry: ligand staining of ⍺4β7-expressing cells in buffers with different divalent cations. The assay is classed as binding, human. To be noted: absence of divalent cations (0.1 mM EDTA).
Text: Fig 1 Binding of soluble CD4 to ⍺4β7 on CD4^+ T cells. (A) Schematic of D1D2-Ig⍺tp. (B) Flow-cytometry histogram of PE-conjugated D1D2-Ig⍺tp staining of CD4^+ T cells alone (blue) or in the presence of either the anti ⍺4 mAb 2B4 (green) or an irrelevant mAb (black-dashed). Cells stained with PE-conjugated MicA-Ig⍺tp (red), along with unstained cells (grey) are included. X-axis indicates geometric mean fluorescence intensity (gMFI). (C) 293T cells untransfected or co-transfected with ⍺4 and β7 expression vectors stained with either PE-D1D2-Ig⍺tp or PE-MAdCAM-Ig in the absence or presence of the ⍺4 antagonist FG. Y-axis indicates gMFI. (D) CD4^+ T cells stained with anti CD45RO (x-axis) anti β7 (y-axis) (left), or with anti CD45RO (x-axis) and D1D2-Ig⍺tp (y-axis) (right). % cells in each quadrant, as indicated. (E) CD4^+ T cells stained as in B, with lower MW forms of oligomerized D1D2-Ig⍺tp. Left Y-axis indicates gMFI (bars), right Y-axis indicates relative MW (kDa) (•). […]
as §1

Regarding `CCOCc1cc(OC)c(-c2ccc(C[C@H](NC(=O)c3c(F)cccc3F)C(=O)O)cc2)c(OC)c1` [FG, firategrast], the “inhibition of D1D2-Ig⍺tp and MAdCAM-Ig binding to ⍺4β7 transfected 293T cells (in words)” value in assay [1] is on record as “inhibited”. The “reduction of pCD4^165-178 binding to CD8^+ T cells” value in assay [2] was ~ 80%.

B1: VCAM-Ig: recombinant VCAM-1 Ig fusion, R&D Systems (protein)
chain: FKIETTPESRYLAQIGDSVSLTCSTTGCESPFFSWRTQIDSPLNGKVTNEGTTSTLTMNPVSFGNEHSYLCTATCESRKLEKGIQVEIYSFPKDPEIHLSGPLEAGKPITVKCSVADVYPFDRLEIDLLKGDHLMKSQEFLEDADRKSLETKSLEVTFTPVIEDIGKVLVCRAKLHIDEMDSVPTVRQAVKELQVYISPKNTVISVNPSTKLQEGGSVTMTCSSEGLPAPEIFWSKKLDNGNLQHLSGNATLTLIAMRMEDSGIYVCEGVNLIGKNRKEVELIVQEKPFTVEISPGPRIAAQIGDSVMLTCSVMGCESPSFSWRTQIDSPLSGKVRSEGTNSTLTLSPVSFENEHSYLCTVTCGHKKLEKGIQVELYSFPRDPEIEMSGGLVNGSSVTVSCKVPSVYPLDRLEIELLKGETILENIEFLEDTDMKSLENKSLEMTFIPTIEDTGKALVCQAKLHIDDMEFEPKQRQSTQTLYVNVAPRDTTVLVSPSSILEEGSSVNMTCLSQGFPAPKILWSRQLPNGELQPLSENATLTLISTKMEDSGVYLCEGINQAGRSRKEVELIIQVTPKDIKLTAFPSESVKEGDTVIISCTCGNVPETWIILKKKAETGDTVLKSIDGAYTIRKAQLKDAGVYECESKNKVGSQLRSLTLDVQGRENNKDYFSPE
modifications: left off: Ig (Fc, from the name VCAM-Ig), end not stated, kept
notes: recombinant VCAM-1 Ig fusion, R&D Systems
Turning to B1, in the assay on ⍺4β7, the KA was determined as 2.76e+07 M⁻¹, the ka came to 38700 M⁻¹ s⁻¹ and the kd was determined as 0.00141 s⁻¹. Besides, in the assay on ⍺4β7 on RPMI8866 cells [3], the “inhibition of PE-conjugated D1D2-Ig⍺tp binding to ⍺4β7 (in words)” value is “inhibited D1D2-Ig⍺tp binding to ⍺4β7 in a dose dependent manner”. Further, the “binding to ⍺4β7 (in words)” value with ⍺4β7 on RPMI8866 cells [4] is reported as “failed to bind”.
